Target: T1, TNFR1 (Homo sapiens, UniProt P19438)
T1 chain: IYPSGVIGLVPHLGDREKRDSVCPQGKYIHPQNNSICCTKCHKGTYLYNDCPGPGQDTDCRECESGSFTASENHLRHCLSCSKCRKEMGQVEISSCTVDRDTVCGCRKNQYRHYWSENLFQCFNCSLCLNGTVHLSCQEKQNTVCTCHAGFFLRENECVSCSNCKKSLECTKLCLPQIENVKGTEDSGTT
Test: yeast display SC50

| Binder | apparent Kd (screen) |
| --- | --- |
| E5L (designed binder) SMEELVEKAAKEYEKKKKEAIEKHLEKLKAKDKEAAERFLKELEEAAKEYAKDEAKTMSEEEAKRRAKKYKEKVLLSELSEEEQKEIKEAEEKLVRTILKYVEEAAK | 0.49 nM |
| V95L (designed binder) SMEEEVEKAAKEYEKKKKEAIEKHLEKLKAKDKEAAERFLKELEEAAKEYAKDEAKTMSEEEAKRRAKKYKEKVLLSELSEEEQKEIKEAEEKLLRTILKYVEEAAK | 7.07 nM |
| E82I (designed binder) SMEEEVEKAAKEYEKKKKEAIEKHLEKLKAKDKEAAERFLKELEEAAKEYAKDEAKTMSEEEAKRRAKKYKEKVLLSELSEIEQKEIKEAEEKLVRTILKYVEEAAK | 0.49 nM |
| V74T (designed binder) SMEEEVEKAAKEYEKKKKEAIEKHLEKLKAKDKEAAERFLKELEEAAKEYAKDEAKTMSEEEAKRRAKKYKEKTLLSELSEEEQKEIKEAEEKLVRTILKYVEEAAK | 16.7 nM |
| E103W (designed binder) SMEEEVEKAAKEYEKKKKEAIEKHLEKLKAKDKEAAERFLKELEEAAKEYAKDEAKTMSEEEAKRRAKKYKEKVLLSELSEEEQKEIKEAEEKLVRTILKYVWEAAK | 0.869 nM |
| E49Y (designed binder) SMEEEVEKAAKEYEKKKKEAIEKHLEKLKAKDKEAAERFLKELEEAAKYYAKDEAKTMSEEEAKRRAKKYKEKVLLSELSEEEQKEIKEAEEKLVRTILKYVEEAAK | 26.9 nM |
| L40T (designed binder) SMEEEVEKAAKEYEKKKKEAIEKHLEKLKAKDKEAAERFTKELEEAAKEYAKDEAKTMSEEEAKRRAKKYKEKVLLSELSEEEQKEIKEAEEKLVRTILKYVEEAAK | 0.718 nM |
| L75Y (designed binder) SMEEEVEKAAKEYEKKKKEAIEKHLEKLKAKDKEAAERFLKELEEAAKEYAKDEAKTMSEEEAKRRAKKYKEKVYLSELSEEEQKEIKEAEEKLVRTILKYVEEAAK | 1.86 nM |
| A63V (designed binder) SMEEEVEKAAKEYEKKKKEAIEKHLEKLKAKDKEAAERFLKELEEAAKEYAKDEAKTMSEEEVKRRAKKYKEKVLLSELSEEEQKEIKEAEEKLVRTILKYVEEAAK | 15.2 nM |
| A63Y (designed binder) SMEEEVEKAAKEYEKKKKEAIEKHLEKLKAKDKEAAERFLKELEEAAKEYAKDEAKTMSEEEYKRRAKKYKEKVLLSELSEEEQKEIKEAEEKLVRTILKYVEEAAK | 12.5 nM |
| K27V (designed binder) SMEEEVEKAAKEYEKKKKEAIEKHLEVLKAKDKEAAERFLKELEEAAKEYAKDEAKTMSEEEAKRRAKKYKEKVLLSELSEEEQKEIKEAEEKLVRTILKYVEEAAK | 0.956 nM |
| Y13P (designed binder) SMEEEVEKAAKEPEKKKKEAIEKHLEKLKAKDKEAAERFLKELEEAAKEYAKDEAKTMSEEEAKRRAKKYKEKVLLSELSEEEQKEIKEAEEKLVRTILKYVEEAAK | 13.8 nM |
| K27S (designed binder) SMEEEVEKAAKEYEKKKKEAIEKHLESLKAKDKEAAERFLKELEEAAKEYAKDEAKTMSEEEAKRRAKKYKEKVLLSELSEEEQKEIKEAEEKLVRTILKYVEEAAK | 0.869 nM |
| M2F (designed binder) SFEEEVEKAAKEYEKKKKEAIEKHLEKLKAKDKEAAERFLKELEEAAKEYAKDEAKTMSEEEAKRRAKKYKEKVLLSELSEEEQKEIKEAEEKLVRTILKYVEEAAK | 1.05 nM |
| E5I (designed binder) SMEEIVEKAAKEYEKKKKEAIEKHLEKLKAKDKEAAERFLKELEEAAKEYAKDEAKTMSEEEAKRRAKKYKEKVLLSELSEEEQKEIKEAEEKLVRTILKYVEEAAK | 0.653 nM |
| R66D (designed binder) SMEEEVEKAAKEYEKKKKEAIEKHLEKLKAKDKEAAERFLKELEEAAKEYAKDEAKTMSEEEAKRDAKKYKEKVLLSELSEEEQKEIKEAEEKLVRTILKYVEEAAK | 0.593 nM |
| A105D (designed binder) SMEEEVEKAAKEYEKKKKEAIEKHLEKLKAKDKEAAERFLKELEEAAKEYAKDEAKTMSEEEAKRRAKKYKEKVLLSELSEEEQKEIKEAEEKLVRTILKYVEEDAK | 0.446 nM |

| Binder | apparent Kd (screen) |
| --- | --- |
| E49T (designed binder) SMEEEVEKAAKEYEKKKKEAIEKHLEKLKAKDKEAAERFLKELEEAAKTYAKDEAKTMSEEEAKRRAKKYKEKVLLSELSEEEQKEIKEAEEKLVRTILKYVEEAAK | 2.73 nM |
| Y50A (designed binder) SMEEEVEKAAKEYEKKKKEAIEKHLEKLKAKDKEAAERFLKELEEAAKEAAKDEAKTMSEEEAKRRAKKYKEKVLLSELSEEEQKEIKEAEEKLVRTILKYVEEAAK | 29.5 nM |
| M2R (designed binder) SREEEVEKAAKEYEKKKKEAIEKHLEKLKAKDKEAAERFLKELEEAAKEYAKDEAKTMSEEEAKRRAKKYKEKVLLSELSEEEQKEIKEAEEKLVRTILKYVEEAAK | 0.539 nM |
| E72M (designed binder) SMEEEVEKAAKEYEKKKKEAIEKHLEKLKAKDKEAAERFLKELEEAAKEYAKDEAKTMSEEEAKRRAKKYKMKVLLSELSEEEQKEIKEAEEKLVRTILKYVEEAAK | 1.69 nM |
| M2S (designed binder) SSEEEVEKAAKEYEKKKKEAIEKHLEKLKAKDKEAAERFLKELEEAAKEYAKDEAKTMSEEEAKRRAKKYKEKVLLSELSEEEQKEIKEAEEKLVRTILKYVEEAAK | 0.446 nM |
| E62I (designed binder) SMEEEVEKAAKEYEKKKKEAIEKHLEKLKAKDKEAAERFLKELEEAAKEYAKDEAKTMSEEIAKRRAKKYKEKVLLSELSEEEQKEIKEAEEKLVRTILKYVEEAAK | 2.73 nM |
| A67E (designed binder) SMEEEVEKAAKEYEKKKKEAIEKHLEKLKAKDKEAAERFLKELEEAAKEYAKDEAKTMSEEEAKRREKKYKEKVLLSELSEEEQKEIKEAEEKLVRTILKYVEEAAK | 15.2 nM |
| A10Q (designed binder) SMEEEVEKAQKEYEKKKKEAIEKHLEKLKAKDKEAAERFLKELEEAAKEYAKDEAKTMSEEEAKRRAKKYKEKVLLSELSEEEQKEIKEAEEKLVRTILKYVEEAAK | 1.4 nM |
| A46W (designed binder) SMEEEVEKAAKEYEKKKKEAIEKHLEKLKAKDKEAAERFLKELEEWAKEYAKDEAKTMSEEEAKRRAKKYKEKVLLSELSEEEQKEIKEAEEKLVRTILKYVEEAAK | 2.25 nM |
| K8F (designed binder) SMEEEVEFAAKEYEKKKKEAIEKHLEKLKAKDKEAAERFLKELEEAAKEYAKDEAKTMSEEEAKRRAKKYKEKVLLSELSEEEQKEIKEAEEKLVRTILKYVEEAAK | 0.539 nM |
| E61S (designed binder) SMEEEVEKAAKEYEKKKKEAIEKHLEKLKAKDKEAAERFLKELEEAAKEYAKDEAKTMSESEAKRRAKKYKEKVLLSELSEEEQKEIKEAEEKLVRTILKYVEEAAK | 1.4 nM |
| E91R (designed binder) SMEEEVEKAAKEYEKKKKEAIEKHLEKLKAKDKEAAERFLKELEEAAKEYAKDEAKTMSEEEAKRRAKKYKEKVLLSELSEEEQKEIKEAREKLVRTILKYVEEAAK | 6.43 nM |
| L94F (designed binder) SMEEEVEKAAKEYEKKKKEAIEKHLEKLKAKDKEAAERFLKELEEAAKEYAKDEAKTMSEEEAKRRAKKYKEKVLLSELSEEEQKEIKEAEEKFVRTILKYVEEAAK | 0.446 nM |
| E7V (designed binder) SMEEEVVKAAKEYEKKKKEAIEKHLEKLKAKDKEAAERFLKELEEAAKEYAKDEAKTMSEEEAKRRAKKYKEKVLLSELSEEEQKEIKEAEEKLVRTILKYVEEAAK | 7.78 nM |
| E45M (designed binder) SMEEEVEKAAKEYEKKKKEAIEKHLEKLKAKDKEAAERFLKELEMAAKEYAKDEAKTMSEEEAKRRAKKYKEKVLLSELSEEEQKEIKEAEEKLVRTILKYVEEAAK | 1.69 nM |
| K18Q (designed binder) SMEEEVEKAAKEYEKKKQEAIEKHLEKLKAKDKEAAERFLKELEEAAKEYAKDEAKTMSEEEAKRRAKKYKEKVLLSELSEEEQKEIKEAEEKLVRTILKYVEEAAK | 1.4 nM |
